US8796227B2, “Peptides for inhibiting chemokine binding to chemokine receptors” (Biokine Therapeutics Ltd., priority 2002, dated 2014)
“Also recorded” adds a separate entry of the source. Each block holds one sequence with its values, some of them ahead of it. Bridges are numbered along the chain shown (N, C = ends). Where no end group is shown, it is not given here.

Tests used:
[1] = target: T1, Human MCP-1 (Homo sapiens, UniProt P13500); test: ELISA analysis of the synthetic chemokine-binding peptide; conditions: chemokine-coated wells, specific binding = at least two fold of binding to control proteins (BSA, Actin, Fibronectin)
T1 construct: purchased PeproTech, Inc. 300-04
T1 sequence (P13500 24-99): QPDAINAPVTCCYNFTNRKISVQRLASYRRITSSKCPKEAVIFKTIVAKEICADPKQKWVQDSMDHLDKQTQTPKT
Method: (§1) Recombinant chemokines were ordered from PeproTech, Inc. (Rocky Hill, N.J., USA). Human SDF-1α (Cat. No. 300-28A), human MIG (Cat. No. 300-26) and human IL-8, (72 amino acids) (Cat. No. 200-08M), belong to the alpha-chemokines (C-X-C) family. Human MCP-1 (MCAF) (Cat. No. 300-04) and human Eotaxin (Cat No. 300-21) belong to the beta-chemokines (C-C family). All chemokines were prepared according to the company recommendations.
(§2) Peptides were synthesized in the Weizmann Institute of Science, Rehovot, Israel, in order to perform tests for characterization of their influence on the biological activity of the chemokines. The format of the various synthesized peptides was as follows: The cyclic peptides, ACX7CGGGSK-biotin-G and the linear peptides, X12GGGSK-biotin-G. The peptides were biotinylated on their C-termini; the biotin will serve as a detector during the following experiments. Each synthetic peptide was dissolved to concentration of 1 mg/ml (˜0.6 mM) in 4% DMSO (Dimethyl Sulphoxide, Sigma, Cat. # D-2650).
(§3) NUNC-Immuno™ MaxiSorp™ plates (Cat. No. 4-42404) were coated with the appropriate chemokine (0.1 ml/well, 0.1-1.0 μg/ml in 0.1 M NaHCO3, pH 8.6), overnight at 4° C. The plates were then blocked with 0.2 ml/well of blocking buffer (5 mg/ml BSA in 0.1 NaHCO3). Control wells were treated with blocking buffer alone, with no addition of target protein (chemokine). The plates were washed 6 times with PBST (0.1% Tween 20 in PBS), followed by incubation for 45 minutes at room temperature with 10-fold serial dilutions of individual synthetic peptides (10pg-10 μg) with 1% BSA (PBST-BSA)/well. After the plates were washed 6 times with PBST, the bound peptides were probed by HRP-SA Conjugate, diluted 1:10,000 to 1:20,000 in PBST-BSA, 0.1 ml/well for 45 minutes at room temperature. The target-bound synthetic peptides probed with HRP-SA were quantified by DAKO TMB one-step substrate system, followed by the addition of stop solution, HCl—H2SO4 mixture (0.1 ml/well) (1N HCl, 3N H2SO4). The results were analyzed by ELISA reader at OD450.
(§4) The present invention identifies chemokine-binding peptides with biological activity. The binding specificities of the various peptides to the chemokines were determined by screening against BSA, Actin and Fibronectin-coated wells as negative controls in parallel experiments. The binding level of the peptides to the various chemokines, which reached at least two fold of the binding level to the control proteins, was considered a specific binding.
(§5) The specific binding of the peptides was detected by screening methodology, using ELISA, as described in “Materials and Methods”, employing microplates coated with the various chemokines to be checked. The binding specificities of the various peptides to the various chemokines were determined by screening against BSA, Actin and Fibronectin-coated wells as negative controls in parallel experiments.
(§6) Again, the specificity of the binding, either to one chemokine or more, was established by comparing binding level with the control binding level to non-related proteins, (shown in the Figure as a broken line).

[2] = target: T2, MIG (Homo sapiens, UniProt Q07325); test: as above; conditions: chemokine-coated wells, specific binding = at least two fold of binding to control proteins (BSA, Actin, Fibronectin)
T2 construct: purchased PeproTech, Inc. 300-26
T2 sequence (Q07325 23-125): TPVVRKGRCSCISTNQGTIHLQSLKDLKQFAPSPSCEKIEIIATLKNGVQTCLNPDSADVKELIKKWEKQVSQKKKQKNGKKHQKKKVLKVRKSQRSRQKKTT
Method: as §1, §2, §3, §4, §5, §6

[3] = target: T2, MIG; test: Biovalidation: laminar flow assay, chemokine and VCAM-1 activated adhesion of T cells; assay type: cell-based; conditions: for Reduction of the activity of MIG: T cell adhesion under flow
Method: 50 ml blood was added to 10 ml Dextran (Dextran T-500 6% w/v) in PBS (phosphate buffer saline), and 7 ml citrate buffer (25 g citrate, 8 g citric acid in 500 ml PBS). The solution was incubated for 30 min at 25° C. 10 ml Ficoll 1077 (Sigma) was added to the bottom of the tube. The tube was then centrifuged at 2,000 rpm for 30 min, at 18° C., (with the brake mode of the centrifuge off). The interphase was collected and washed twice with 8 ml PBS-5% FCS (fetal calf serum), followed by centrifugation at 1,400 rpm, for 5 min, at 18° C. The cells were re-suspended in PBS-5% FCS at a concentration less than 10^8/ml. 2 ml of the cell solution were applied and incubated for 45 min at 25° C. on a Perspex Nylon wool column, which was pre-soaked with PBS-5% FCS. Each column was washed with 8 ml PBS-5% FCS and the cells (T-cells and erythrocytes) were eluted by 50 ml of 5 mM EDTA in PBS. A red pellet was obtained by centrifugation at 1,400 rpm, at 4° C., for 5 min, with the brake on. In order to perform lysis of the erythrocytes, the red pellet was re-suspended in 5 ml lysis-buffer (155 mM NH4Cl, 10 mM KHCO3, 0.1 mM EDTA, X0.1PBS) for 4 min, followed by immediate addition of 50 ml of PBS-EDTA.
Following centrifugation at 1,400 rpm, at 4° C., for 5 min with brake on, the pellet was washed again with 50 ml PBS-EDTA and re-centrifuged under the same conditions. A white pellet was obtained and re-suspended in RPMI/10% FCS/L-glutamine/sodium pyruvate/antibiotics at a concentration of 3^X10^6 cells/ml. The cells were incubated for 2 h at 37° C., followed by collection of the non-adherent cells. The cells were ready for use in experiments after overnight incubation at 37° C. […]
Laminar flow assays were performed as follows. Polystyrene plates (B.D) were coated with soluble VCAM-1 at 10 μg/ml in the presence of 2 μg/ml HSA carrier. The plates were washed three times with PBS and blocked with HSA (20 μg/ml in PBS) for 2 hrs at room temperature. Alternatively, washed plates were coated with 10 μg/ml MIG chemokine in PBS for 30 min at room temperature, before being blocked with HSA. The plates were assembled as the lower wall of a parallel wall flow chamber and mounted on the stage of an inverted microscope. The peptide, as described previously, (10 μg/ml) was allowed to settle on the substrate coated chamber wall for 10 min, at 37° C. and then washed. T cells (5×10^6/ml, purity >98%) were suspended in binding buffer, perfused into the chamber and allowed to settle on the substrate coated chamber wall for 1 min, at 37° C. Flow was initiated and increased in 2 to 2.5 fold increments every 5 sec. generating controlled shear stresses on the wall. Cells were visualized in a 20× objective of an inverted phase-contrast Diaphot Microscope (Nikon, Japan) and photographed with a long integration LIS-700 CCD video camera (Applitech; Holon, Israel), connected to a video recorder (AG-6730 S-VHS, Panasonic, Japan). The number of adherent cells resisting detachment by the elevated shear forces was determined after each interval by analysis of videotaped cell images, and was expressed as the percent of originally settled cells. All adhesion experiments were performed at least three times on multiple test fields.

[4] = target: T3, SDF-1α (Homo sapiens, UniProt P48061); test: ELISA analysis of the synthetic chemokine-binding peptide; conditions: chemokine-coated wells, specific binding = at least two fold of binding to control proteins (BSA, Actin, Fibronectin)
T3 construct: purchased PeproTech, Inc. 300-28A
T3 sequence (P48061 22-89 limits assumed): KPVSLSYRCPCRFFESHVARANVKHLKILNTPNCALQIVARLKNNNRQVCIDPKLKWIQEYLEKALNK
Method: as §1, §2, §3, §4, §5, §6

[5] = tested on: chemokines MCP-1, SDF-1α, MIG, Eotaxin and IL-8; test: ELISA binding to the panel of chemokines (chemokine not singled out); design: species or system human; conditions: five chemokines tested, control binding level = one fold
Method: as §1, §2, §3
The present invention identifies chemokine-binding peptides with biological activity. The binding specificities of the various peptides to the chemokines were determined by screening against BSA, Actin and Fibronectin-coated wells as negative controls in parallel experiments. […]
The specific binding of the peptides was detected by screening methodology, using ELISA, as described in “Materials and Methods”, employing microplates coated with the various chemokines to be checked. The binding specificities of the various peptides to the various chemokines were determined by screening against BSA, Actin and Fibronectin-coated wells as negative controls in parallel experiments. […]

[6] = target: T4, Eotaxin (Homo sapiens, UniProt P51671); test: ELISA analysis of the synthetic chemokine-binding peptide; conditions: chemokine-coated wells, specific binding = at least two fold of binding to control proteins (BSA, Actin, Fibronectin)
T4 construct: purchased PeproTech, Inc. 300-21
Method: as §1, §2, §3, §4, §5, §6

[7] = target: T5, human IL-8 (Homo sapiens, UniProt P10145); test: as above; conditions: chemokine-coated wells, specific binding = at least two fold of binding to control proteins (BSA, Actin, Fibronectin)
T5 construct: human IL-8, (72 amino acids) (Cat. No. 200-08M); purchased PeproTech, Inc. 200-08M
T5 sequence (P10145 28-99 limits assumed): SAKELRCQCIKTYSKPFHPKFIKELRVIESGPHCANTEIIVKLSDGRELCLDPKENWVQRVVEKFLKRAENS
Method: as §1, §2, §3, §4, §5, §6

[8] = target: T6, IL-8 (Homo sapiens, UniProt P10145); test: Biovalidation: laminar flow assay, chemokine and VCAM-1 activated adhesion of T cells; assay type: cell-based; conditions: VCAM-1
T6 construct: human IL-8, (72 amino acids) (Cat. No. 200-08M); purchased PeproTech, Inc. 200-08M
T6 sequence (P10145 28-99): T5 sequence (P10145 28-99 limits assumed)

Sequence: ACHASLKHRC [BKT-P48]
Bound chemokines (at least): MCP-1 [1]: MCP-1

Sequence: AHSLKSITNHGL [BKT-P44]
Bound chemokines (at least): MCP-1 [1]: MCP-1

Sequence: CDIPWRNEC [BKT-P10]
Bound chemokines (at least): MIG [2]: does not bind
Percentage of arrested cells ([3]; MIG plus peptide (FIG. 4), MIG alone about 25-30%, control = VCAM-1 alone): 25%-30%
Reduction of the activity of MIG ([3]; VCAM-1): no influence on the activity of MIG

Sequence: CKESATYFC (ACKESATYFCGGGS-{K(biotin)-Gly}; disulfide 2-10 (inferred)) [BKT-P18]
Binding to the various chemokines [5]: no binding to the various chemokines

Sequence: FSMDDPERVRSP [BKT-P9]
Binding to the various chemokines [5]: bind specifically to a single chemokine; also recorded: specifically bind to one specific chemokine

Sequence: GDFNSGHHTTTR [BKT-P27]
Bound chemokines (at least): MCP-1 [1]: MCP-1

Sequence: GVHKHFYSRWLG [BKT-P33]
Bound chemokines (at least): Eotaxin [6]: Eotaxin

Sequence: HHFHLPKLRPPV [BKT-P45]
Bound chemokines (at least): MCP-1 [1]: MCP-1
Bound chemokines (at least): MIG [2]: MIG
Bound chemokines (at least): IL-8 [7]: IL-8
Level of Antagonistic Effect ([3]; Chemokine checked MIG, T cells, VCAM-1, peptide 10 μg/ml): + (+ 20%)
Reduction of the activity of MIG ([3]; VCAM-1): about 20%
Level of Antagonistic Effect ([8]; Chemokine checked IL-8, T cells, peptide 10 μg/ml): +++ (+++ 100%)
Abolishment of the activity of IL-8 ([8]; T cell adhesion under flow): 100%

Next, values leading:

Bound chemokines (at least): MIG [2]: MIG
Sequence: CAHLSPHKC [BKT-P50]

Bound chemokines (at least): SDF-1α [4]: SDF-1α
Sequence: CHHNLSWEC [BKT-P56]

Bound chemokines (at least): MCP-1 [1]: MCP-1
Sequence: ESDLTHALHWLG [BKT-P51]

Bound chemokines (at least): MCP-1 [1]: MCP-1
Sequence: HHTWDTRIWQAF [BKT-P55]

Bound chemokines (at least): MIG [2]: MIG
Sequence: HPTTPFIHMPNF (HPTTPIHMPNF) [BKT-P54]

Bound chemokines (at least): MCP-1 [1]: MCP-1
Sequence: HSACHASLKHRC [BKT-P49]
